± gives the half width of the 95% confidence interval.
Columns and labels:
[1] = folding stability dG unfold from chymotrypsin proteolysis; higher = more stable
Procedure, shortened: (§1)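 Mini-proteins designed to be under 80 residues and free of cysteine were carried in a PA-tagged cDNA display construct and digested with trypsin and with chymotrypsin. Each protease was applied at 11 threefold-diluted concentrations, alongside a no-protease condition, before sequencing. K50 came from Bayesian fitting of the sequencing counts, and unfolding free energy was obtained by comparing it with a sequence-predicted unfolded-state K50 and a shared folded-state K50, for each protease separately or for both together. Designs were retained only if their AlphaFold2 dimer inter-PAE exceeded 15.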

[2] = folding stability dG unfold from trypsin proteolysis; higher = more stable
Procedure, shortened: as §1

[3] = folding stability dG unfold (combined trypsin and chymotrypsin); higher = more stable
Procedure, shortened: as §1

Sequence	folding stability dG unfold [1]	folding stability dG unfold [2]	folding stability dG unfold [3]
SAGGSAGGSPLDIEIKMEFHPDHGYWEMEIKIPGNGREINIHYQYEGGKPQITSPEQILDAIKSAGGSAGGS [r20_131_TrROS]	6.29 ± 0.343 kJ/mol	2.6 ± 0.502 kJ/mol	5.17 ± 1 kJ/mol
SAGGSAGGSPLPYLTEDGEVQVVVRIDNSTGTTTVTLTGPDGKLLKTFSVSTDGPAFVVVRAGSAGGSAGGS [r12_960_TrMRF]	8.02 ± 0.117 kJ/mol	5.6 ± 0.142 kJ/mol	7.21 ± 0.268 kJ/mol
SAGGSAGGSPMPVIEEVPLNPVEEKPDPSSNTLTVKYPDGTYRILTKNPDGSYSFKVLPSSSISAGGSAGGS [r12_351_JUSTAS]	6.51 ± 0.41 kJ/mol	6.99 ± 0.142 kJ/mol	7.17 ± 0.372 kJ/mol
SAGGSAGGSPNDMKEVDFPIKFPKEKFKVKIWRHPDDPNRYYIRFPSNGAIFWFDPNGDIEPLSAGGSAGGS [r12_580_TrROS]	7.34 ± 0.356 kJ/mol	4.24 ± 0.234 kJ/mol	6.22 ± 0.418 kJ/mol
SAGGSAGGSPNTIEIWIQIPPGDPEKVEEIAKKLRDEGFKDIKVDEVHRNPDDSYYVEIKITVSAGGSAGGS [r12_91_TrROS]	4.7 ± 0.105 kJ/mol	6.49 ± 0.502 kJ/mol	5.96 ± 0.347 kJ/mol
SAGGSAGGSPPMKTYEHWIRFDSPEQAVEEVANHIQDHFGLEIKSVEIEYDPENGWVRVKIVISAGGSAGGS [r12_265_TrROS]	14.43 ± 0.121 kJ/mol	11.3 ± 0.314 kJ/mol	13 ± 0.586 kJ/mol
SAGGSAGGSPPPDIKVEVESYENPDGQRYYRVTITIDDGRPFDIWMPPGMSPSEAKNWLKDLLSAGGSAGGS [r12_1019_TrROS]	16.59 ± 0.146 kJ/mol	14 ± 0.335 kJ/mol	15.8 ± 0.393 kJ/mol
SAGGSAGGSPPPITIFTAYKDPEDGPYWMKRRKINPDNGNIEEEWYPADDLADHGLPPGDIFISAGGSAGGS [r12_123_TrROS]	1.73 ± 1.38 kJ/mol	-2.37 ± 3.68 kJ/mol	0.848 ± 0.837 kJ/mol
SAGGSAGGSPPPRFRVVVVFEDGTRREFDLTPEELVAFAEVVPDVVVEELPPGEVRITVRLPGSAGGSAGGS [r20_231_TrMRF]	13 ± 0.234 kJ/mol	10.2 ± 0.339 kJ/mol	12.2 ± 0.418 kJ/mol
SAGGSAGGSPVLIPVKTPEEIKKFLEKASSDAKFKVFNNKGEWKEVSKNEISVTPEEQFILVYSAGGSAGGS [r12_907_TrMRF]	2.77 ± 0.586 kJ/mol	1.83 ± 0.201 kJ/mol	2.42 ± 0.285 kJ/mol
SAGGSAGGSPVLLAESVTTLPDGTVVRTRLVRLPDGTYLRETETYPPGGAPARAVERFDDPRLASAGGSAGG [r6_299_JUSTAS]	14.66 ± 0.0962 kJ/mol	6.93 ± 0.163 kJ/mol	12.9 ± 0.247 kJ/mol
SAGGSAGGSPVPVKVEKKPTKENKELIITYYPDGKVRVTTYTYDENGNKISEKEEIIPKSEVKLSAGGSAGG [r6_579_JUSTAS]	6.6 ± 0.134 kJ/mol	3.39 ± 0.134 kJ/mol	5.75 ± 0.255 kJ/mol
SAGGSAGGSPVPVKVVVKLPSSDKTIELTLYPPDVSPDSVVTVDLGGPAIDVKLLPGDVLELSPSAGGSAGG [r6_461_JUSTAS]	2.19 ± 0.163 kJ/mol	0.477 ± 0.142 kJ/mol	1.35 ± 0.406 kJ/mol
SAGGSAGGSPVVAIRAKSREELLAALEALLPPGQKLTPEQRQQLVDTLLANLDVKPGDTILVRSAGGSAGGS [r12_983_TrROS_Hall]	3.85 ± 0.142 kJ/mol	4.47 ± 0.268 kJ/mol	4.15 ± 0.502 kJ/mol
SAGGSAGGSPVVLYEVDPSTNSVTLTVEVLHPDGTPLRKEYTTNGDPLEAALRFAKAVLEEAGSAGGSAGGS [r20_33_TrMRF]	3.4 ± 0.711 kJ/mol	1.7 ± 0.879 kJ/mol	2.92 ± 0.502 kJ/mol
SAGGSAGGSSGMVKAEFGLVAPDGTPVSTRTLTFSSEEEIEEALAALPEFSLALVPDVKRGPLSAGGSAGGS [r12_182_JUSTAS]	3.6 ± 0.544 kJ/mol	-2.45 ± 1.59 kJ/mol	2.13 ± 0.586 kJ/mol
SAGGSAGGSSKNGKPKPTIKVEMPDKPGPHEIPIPESDPDEAKTLAEELAQKWPGVPVRIEPTSAGGSAGGS [r12_601_TrROS]	4.14 ± 0.238 kJ/mol	-1.23 ± 0.418 kJ/mol	2.43 ± 0.544 kJ/mol
SAGGSAGGSSKYIKFIIPANSPEAIEKAKELAEFIKKKYPGIKKIEVKYNPEKGYLEVIAEVESAGGSAGGS [r12_248_TrMRF]	16.2 ± 0.201 kJ/mol	17.1 ± 1.17 kJ/mol	16.6 ± 0.711 kJ/mol

Sequence	folding stability dG unfold [1]	folding stability dG unfold [2]	folding stability dG unfold [3]
SAGGSAGGSSLEEIAKKLGLKPGMRVRLSDGKVLEVPSLDDLKAALEAGLSLEELKKIEIEPVSAGGSAGGS [r12_430_TrROS_Hall]	7.03 ± 0.167 kJ/mol	4.74 ± 0.0962 kJ/mol	5.95 ± 0.502 kJ/mol
SAGGSAGGSSLKPGQELELTLTLRVEVEVEVYENGKPVERYRVEREVRLTLRLKLPAASLEDLSAGGSAGGS [r20_14_TrROS_Hall]	24 ± 0.879 kJ/mol	17 ± 0.586 kJ/mol	23.2 ± 0.628 kJ/mol
SAGGSAGGSSLTLRLRLRLRVRVLDEETGELSEFEVEVELELRFEPAPPPPPPPLVLRDGKLVSAGGSAGGS [r12_140_TrROS_Hall]	18.9 ± 0.753 kJ/mol	14.4 ± 0.628 kJ/mol	18.2 ± 1.42 kJ/mol
SAGGSAGGSSMPTMTKVGDTWLYYDPSTDIKRPATVTVDDGKITIDGDSGTTVYDGDLVIETSSAGGSAGGS [r12_683_JUSTAS]	-1.31 ± 0.544 kJ/mol	1.63 ± 0.238 kJ/mol	0.625 ± 0.418 kJ/mol
SAGGSAGGSSMTFEVVEIERPPGDEIRVLVKREDGREFAEITLPPGASPEEIERAVREAVEAESAGGSAGGS [r12_798_JUSTAS]	6.48 ± 0.238 kJ/mol	2.96 ± 0.293 kJ/mol	5.27 ± 1.17 kJ/mol
SAGGSAGGSSMTFISTSTSPGNGYTYNIYSQPGKVVVTTTAPDGTVSVTTVEVSPDTSVTVTAASAGGSAGG [r6_380_JUSTAS]	5.68 ± 0.502 kJ/mol	4.85 ± 0.188 kJ/mol	5.43 ± 0.356 kJ/mol
SAGGSAGGSSPEENLETQVETELLEEFKPGDKPRKLVKTTVTYPDGTTKEEIVTIDENGNILLSAGGSAGGS [r12_755_JUSTAS]	-0.488 ± 0.272 kJ/mol	-0.862 ± 0.205 kJ/mol	-0.395 ± 0.418 kJ/mol
SAGGSAGGSSPITIPIPLSELSEETLKKIAEENPEGETPIKIIKPDGTPVTIVVKPGGEIIGASAGGSAGGS [r12_1054_JUSTAS]	4.57 ± 0.285 kJ/mol	3.05 ± 0.192 kJ/mol	4.21 ± 0.314 kJ/mol
SAGGSAGGSSPPVTVIPLKIPVDPDTTPEEIKEELAAKVPPNSSVKVDTKPGSGTVNVTVTISSAGGSAGGS [r12_12_JUSTAS]	-0.585 ± 0.46 kJ/mol	4.68 ± 0.255 kJ/mol	3.15 ± 0.586 kJ/mol
SAGGSAGGSSPVRMVATIPLPDGTTITVEAEIVRLPDGTILIKTPSGEIIEVPPDVPVEFFPESAGGSAGGS [r20_227_JUSTAS]	10.2 ± 0.218 kJ/mol	7.43 ± 0.238 kJ/mol	9.32 ± 0.226 kJ/mol
SAGGSAGGSSSYSVPDSSSVTLETTVTITFPSSSVGGSPASSGPVAFTVPVKVTVSVTNPGVASAGGSAGGS [r12_668_JUSTAS]	2.23 ± 0.753 kJ/mol	4.95 ± 0.121 kJ/mol	4.27 ± 0.586 kJ/mol
SAGGSAGGSSTATFTLSRLPDGTYRLTLYDPSTNKVTTEEVPASRPDEYSAVTVSSDGTVTTASAGGSAGGS [r20_11_JUSTAS]	1.42 ± 0.46 kJ/mol	3.22 ± 0.318 kJ/mol	2.77 ± 0.397 kJ/mol
SAGGSAGGSSTTPVTITVPESILDEIKKKAEELGIKVEVEIKESPENKKYATVTIEIPENVELSAGGSAGGS [r12_653_JUSTAS]	-1.04 ± 1.05 kJ/mol	3.91 ± 0.339 kJ/mol	2.13 ± 0.586 kJ/mol
SAGGSAGGSSVIEVTFSDGSKALFFPGSQKVVVYNPSTKKKIVIPPGVSPETALKAIAEGKPISAGGSAGGS [r12_832_TrMRF]	0.773 ± 0.305 kJ/mol	3.81 ± 0.234 kJ/mol	2.81 ± 0.544 kJ/mol
SAGGSAGGSSVLEVDPETGITVAVQDPSTGRYYVRNPEGEIREFDSPEEIREAFGRPVNFKTAPSAGGSAGG [r6_753_JUSTAS]	3.29 ± 0.343 kJ/mol	2.34 ± 0.0753 kJ/mol	3.15 ± 0.238 kJ/mol
SAGGSAGGSSYTVSEDPNSSSTTITDPVTGRTVLRSPSSWTVVDPETGEEKSFPAGTVVTLPESAGGSAGGS [r12_584_JUSTAS]	4.42 ± 0.234 kJ/mol	-0.613 ± 0.544 kJ/mol	3.03 ± 0.176 kJ/mol
SAGGSAGGSTIDITLPDLDEEEIREYLKELFPDVEVTIEYDPSTNTYTLKVGGDEVVVTRLPPNSAGGSAGG [r6_609_JUSTAS]	14.4 ± 0.159 kJ/mol	13.6 ± 0.36 kJ/mol	14.4 ± 0.238 kJ/mol
SAGGSAGGSTLKLEIVNEDGYKVEIEAELELVEKDGKLVLKLKVKIKVEPAKEVKEVKVELPESAGGSAGGS [r12_581_TrROS_Hall]	16.2 ± 0.837 kJ/mol	8.15 ± 0.669 kJ/mol	14.4 ± 1.84 kJ/mol
